Measured values reported in patent US20200062863A1 (CSL BEHRING, published 2020).

Legend:
Experiment in all cases: Western blot of culture supernatant (non-reducing SDS-PAGE) probed with 3F7 mAb, anti-human IgG-FITC
N516S = target: T1, N516S
T1 construct: also called Mu-FXII N516S mutant with C-terminal 8xHis-tag; mutant l)
T1 single chain: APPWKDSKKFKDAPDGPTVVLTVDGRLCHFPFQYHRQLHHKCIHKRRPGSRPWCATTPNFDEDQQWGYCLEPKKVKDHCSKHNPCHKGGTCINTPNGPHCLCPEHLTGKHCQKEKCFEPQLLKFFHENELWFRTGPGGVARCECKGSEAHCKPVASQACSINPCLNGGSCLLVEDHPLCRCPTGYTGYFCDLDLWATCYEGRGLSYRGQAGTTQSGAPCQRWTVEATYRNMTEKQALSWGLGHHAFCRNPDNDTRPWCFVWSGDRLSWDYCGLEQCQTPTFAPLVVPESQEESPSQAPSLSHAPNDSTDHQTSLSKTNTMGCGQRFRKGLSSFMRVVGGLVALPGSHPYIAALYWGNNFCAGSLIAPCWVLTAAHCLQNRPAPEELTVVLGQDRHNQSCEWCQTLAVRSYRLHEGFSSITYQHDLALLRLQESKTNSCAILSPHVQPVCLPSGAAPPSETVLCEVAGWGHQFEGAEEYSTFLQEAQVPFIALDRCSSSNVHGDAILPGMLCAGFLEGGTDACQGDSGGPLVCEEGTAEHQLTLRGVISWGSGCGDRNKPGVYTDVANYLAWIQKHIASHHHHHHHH
Method: (§1) Proteins were then transferred electrophoretically onto nitrocellulose filters and blocked for 1 hour in 5% Milk powder in Tris-buffered saline with 0.05% Tween-20 (TTBS). Filters were then incubated for 1 hour with either 3F7 mAb or an anti-His mAb 3H3 (both at […] in TTBS with 5% Milk powder), washed thoroughly with TTBS, then incubated for a further hour with anti-human IgG-FITC or anti-mouse IgG-FITC, respectively (Millipore, USA; both at 0.25 mg/ml in TTBS with 5% Milk powder). Following further washing of membranes in TTBS, Ab-FITC bound proteins were visualized using a Typhoon variable mode analyzer (GE Healthcare, USA).

Q450R = target: T2, Q450R
T2 construct: also called Mu-FXII Q450R mutant with C-terminal 8xHis-tag; mutant g)
T2 single chain: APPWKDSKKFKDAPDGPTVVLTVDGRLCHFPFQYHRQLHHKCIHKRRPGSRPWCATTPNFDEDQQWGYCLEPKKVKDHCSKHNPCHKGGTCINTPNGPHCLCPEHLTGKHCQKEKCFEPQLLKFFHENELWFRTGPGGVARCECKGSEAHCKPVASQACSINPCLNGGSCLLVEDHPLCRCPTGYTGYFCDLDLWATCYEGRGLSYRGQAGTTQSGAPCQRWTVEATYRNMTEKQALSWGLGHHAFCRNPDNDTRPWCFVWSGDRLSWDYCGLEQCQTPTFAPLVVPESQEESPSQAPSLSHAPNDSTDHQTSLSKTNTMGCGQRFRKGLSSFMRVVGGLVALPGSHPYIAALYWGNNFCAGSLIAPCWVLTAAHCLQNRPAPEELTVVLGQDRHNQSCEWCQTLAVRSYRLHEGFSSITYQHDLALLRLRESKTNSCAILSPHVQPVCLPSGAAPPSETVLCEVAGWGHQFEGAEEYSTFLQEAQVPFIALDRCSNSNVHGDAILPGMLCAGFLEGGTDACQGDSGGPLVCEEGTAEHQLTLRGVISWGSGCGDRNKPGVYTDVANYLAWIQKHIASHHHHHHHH
Method: as §1

T538A = target: T3, T538A
T3 construct: also called Mu-FXII T538A mutant with C-terminal 8xHis-tag; mutant m)
T3 single chain: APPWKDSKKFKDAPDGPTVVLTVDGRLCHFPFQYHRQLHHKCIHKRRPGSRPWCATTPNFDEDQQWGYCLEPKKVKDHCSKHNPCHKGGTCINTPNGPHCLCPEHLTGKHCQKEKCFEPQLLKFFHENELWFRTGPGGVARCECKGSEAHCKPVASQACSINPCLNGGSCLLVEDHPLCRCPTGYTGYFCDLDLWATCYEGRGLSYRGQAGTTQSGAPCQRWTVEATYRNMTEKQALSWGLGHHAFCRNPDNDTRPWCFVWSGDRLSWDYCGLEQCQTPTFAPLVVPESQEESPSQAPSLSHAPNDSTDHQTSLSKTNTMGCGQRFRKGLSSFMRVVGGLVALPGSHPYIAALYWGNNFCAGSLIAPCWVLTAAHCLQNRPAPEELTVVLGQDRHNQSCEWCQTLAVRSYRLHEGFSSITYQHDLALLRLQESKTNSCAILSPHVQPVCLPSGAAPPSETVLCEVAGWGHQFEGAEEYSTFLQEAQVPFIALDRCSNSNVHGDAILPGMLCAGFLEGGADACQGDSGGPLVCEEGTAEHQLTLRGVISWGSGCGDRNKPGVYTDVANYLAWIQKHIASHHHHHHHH
Method: as §1

S452G = target: T4, S452G
T4 construct: also called Mu-FXII S452G mutant with C-terminal 8xHis-tag; mutant i)
T4 single chain: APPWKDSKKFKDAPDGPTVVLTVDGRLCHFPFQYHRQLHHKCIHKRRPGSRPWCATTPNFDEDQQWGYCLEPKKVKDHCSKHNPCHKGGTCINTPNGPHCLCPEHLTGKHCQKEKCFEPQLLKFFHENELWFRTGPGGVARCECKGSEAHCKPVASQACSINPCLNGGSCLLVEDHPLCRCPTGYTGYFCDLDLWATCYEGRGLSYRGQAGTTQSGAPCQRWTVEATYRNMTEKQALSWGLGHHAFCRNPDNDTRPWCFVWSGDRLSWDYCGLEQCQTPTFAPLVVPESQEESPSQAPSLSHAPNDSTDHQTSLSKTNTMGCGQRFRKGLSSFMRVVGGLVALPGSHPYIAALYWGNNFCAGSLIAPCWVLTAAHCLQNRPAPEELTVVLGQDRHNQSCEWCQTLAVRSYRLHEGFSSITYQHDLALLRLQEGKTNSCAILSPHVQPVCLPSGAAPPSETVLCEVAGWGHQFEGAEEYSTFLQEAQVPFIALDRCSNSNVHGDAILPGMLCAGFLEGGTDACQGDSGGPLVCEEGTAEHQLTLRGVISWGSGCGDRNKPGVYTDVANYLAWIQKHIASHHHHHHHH
Method: as §1

- binding result (N516S): binds
- binding result (Q450R): binds
- binding result (T538A): binds
- binding result (S452G): binds
B1: monoclonal antibody 3F7 (fully human IgG4/lambda) (antibody, V domains shown)
VH: EVQLLESGGGLVQPGGSLRLSCAASGFTFSKYIMQWVRQAPGKGLEWVSGIRPSGGTTVYADSVKGRFTISRDNSKNTLYLQMNSLRAEDTAVYYCARALPRSGYLISPHYYYYALDVWGQGTTVTVSS
VL: QSELTQPPSASGTPGQRVTISCSGSSSNIGRNYVYWYQQVPGTAPKLLIYSNNQRPSGVPDRFSGSKSGTSASLVISGLRSEDEADYYCAAWDASLRGVFGGGTKLTVLG
notes: also called 3F7 mAb; MAb 3F7
